Kd data for one sequence are collected here from article PMC2925389, “Pre-Steady-State Kinetic Analysis of Truncated and Full-Length Saccharomyces cerevisiae DNA Polymerase Eta” (Journal of Nucleic Acids, 2010).

Data set [1] addresses T1, yPolη full-length (Saccharomyces cerevisiae) (UniProt Q04049).
T1 sequence: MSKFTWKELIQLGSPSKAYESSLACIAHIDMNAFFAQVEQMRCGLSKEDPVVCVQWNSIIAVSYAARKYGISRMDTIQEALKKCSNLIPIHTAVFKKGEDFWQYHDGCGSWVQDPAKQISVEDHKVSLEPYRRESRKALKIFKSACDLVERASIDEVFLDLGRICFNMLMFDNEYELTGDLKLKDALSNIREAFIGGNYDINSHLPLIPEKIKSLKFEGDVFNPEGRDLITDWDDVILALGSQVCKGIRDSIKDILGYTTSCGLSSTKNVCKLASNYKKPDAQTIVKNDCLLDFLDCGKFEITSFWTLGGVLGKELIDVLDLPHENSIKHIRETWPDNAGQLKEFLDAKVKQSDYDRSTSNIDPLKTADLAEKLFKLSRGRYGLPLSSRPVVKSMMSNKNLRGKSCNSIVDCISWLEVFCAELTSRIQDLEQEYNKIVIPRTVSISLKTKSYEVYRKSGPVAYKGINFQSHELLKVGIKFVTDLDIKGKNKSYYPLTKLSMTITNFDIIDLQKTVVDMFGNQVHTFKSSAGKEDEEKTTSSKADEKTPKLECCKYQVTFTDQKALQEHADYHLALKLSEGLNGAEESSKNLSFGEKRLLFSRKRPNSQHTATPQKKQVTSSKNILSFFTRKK
The data set can be described thus: fluorescence titration (2-aminopurine). Conditions: 2-aminopurine at position 19 of the 41-mer template (X, written as A); 23°C, buffer A (composition not in material; without BSA for fluorescence); EMSA 10 nM DNA, 10-450 nM protein, 20 min, 4.5% native gel, 40 mM Tris in running …. In general terms: In EMSA bound probe runs differently from free probe, usually more slowly.

The target of data set [2] is T2, yPolη truncated (catalytic core) (Saccharomyces cerevisiae) (UniProt Q04049).
T2 sequence: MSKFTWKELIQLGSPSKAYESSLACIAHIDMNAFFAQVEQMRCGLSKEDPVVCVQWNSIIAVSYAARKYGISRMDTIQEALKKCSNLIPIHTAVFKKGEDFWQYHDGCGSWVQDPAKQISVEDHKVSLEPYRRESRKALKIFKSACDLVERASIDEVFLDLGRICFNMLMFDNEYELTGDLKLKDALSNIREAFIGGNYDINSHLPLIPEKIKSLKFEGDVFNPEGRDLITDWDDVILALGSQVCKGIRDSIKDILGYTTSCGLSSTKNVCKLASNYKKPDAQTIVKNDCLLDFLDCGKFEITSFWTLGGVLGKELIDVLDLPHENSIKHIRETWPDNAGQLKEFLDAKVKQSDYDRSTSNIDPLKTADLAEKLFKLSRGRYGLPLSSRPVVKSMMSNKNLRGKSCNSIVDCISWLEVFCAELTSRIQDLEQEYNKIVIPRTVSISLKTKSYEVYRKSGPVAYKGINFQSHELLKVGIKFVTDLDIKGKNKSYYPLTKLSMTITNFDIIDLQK
The data set can be described thus: fluorescence titration (2-aminopurine). The note with it: 2-aminopurine at position 19 of the 41-mer template (X, written as A); 23°C, buffer A (composition not in material; without BSA for fluorescence); EMSA 10 nM DNA, 10-450 nM protein, 20 min, 4.5% native gel, 40 mM Tris in running ….

As for “CGCAGCCGTCCAACCAACTCA / GGACGGCATTGGATCGACACTGAGTTGGTTGGACGGCTGCG [F-8 21/41-mer]”, the Kd in data set [1] was 0.007 µM; in data set [2] it was 0.013 µM.

For orientation: Kd means the constant that tells how readily two partners part at equilibrium. Read a low Kd as tighter binding.
